PMC10767699, “Custom Design of a Humidifier Chamber for InMeso Crystallization” (Crystal Growth & Design, 2023)

Target: the molecule itself
Experiment: crystal structure; in meso (monoolein mesophase) crystallization of apo GltTk, 21 °C; space groups H3_(2) and P6_(3)22; one protomer in the asymmetric unit, trimer generated by crystal symmetry

B1: transmembrane aspartate transporter GltTk from Thermococcus kodakarensis (natural protein)
chain: MGKSLLRRYLDYPVLWKILWGLVLGAVFGLIAGHFGYAGAVKTYIKPFGDLFVRLLKMLVMPIVLASLVVGAASISPARLGRVGVKIVVYYLATSAMAVFFGLIVGRLFNVGANVNLGSGTGKAIEAQPPSLVQTLLNIVPTNPFASLAKGEVLPVIFFAIILGIAITYLMNRNEERVRKSAETLLRVFDGLAEAMYLIVGGVMQYAPIGVFALIAYVMAEQGVRVVGPLAKVVGAVYTGLFLQIVITYFILLKVFGIDPIKFIRKAKDAMITAFVTRSSSGTLPVTMRVAEEEMGVDKGIFSFTLPLGATINMDGTALYQGVTVLFVANAIGHPLTLGQQLVVVLTAVLASIGTAGVPGAGAIMLAMVLQSVGLDLTPGSPVALAYAMILGIDAILDMGRTMVNVTGDLAGTVIVAKTEKELDESKWISHHHHHHHH
stoichiometry N: 3
